# Measurements reported in PMC3241645 (Nucleic Acids Research, 2011).
# B1: Helicobacter pylori GluRS2 (non-canonical glutamyl-tRNA synthetase 2) (enzyme, UniProt O25360 1-439, looked up)
# chain: MLRFAPSPTGDMHIGNLRAAIFNYIVAKQQYKPFLIRIEDTDKERNIEGKDQEILEILKLMGISWDKLVYQSHNIDYHREMAEKLLKENKAFYCYASAEFLEREKEKAKNEKRPFRYSDEWATLEKDKHHAPVVRLKAPNHAVSFNDAIKKEVKFEPDELDSFVLLRQDKSPTYNFACACDDLLYKISLIIRGEDHVSNTPKQILIQQALGSNDPIVYAHLPIILDEVSGKKMSKRDEASSVKWLLNQGFLPVAIANYLITIGNKVPKEVFSLDEAIEWFSLENLSSSPAHFNLKYLKHLNHEHLKLLDDDKLLELTSIKDKNLLGLLRLFIEECGTLLELREKISLFLEPKDIVKTYENEDFKERCLALFNALTSMDFQAYKDFESFKKEAMRLSQLKGKDFFKPLRILLTGNSHGVELPLIFPYIQSHHQEVLRLKA
# Tests used:
# [1] = target: Helicobacter pylori GluRS2 (non-canonical glutamyl-tRNA synthetase 2) (Helicobacter pylori) (UniProt O25360); experiment: dynamic light scattering
# [2] = target: Helicobacter pylori GluRS2 (non-canonical glutamyl-tRNA synthetase 2) (Helicobacter pylori) (UniProt O25360); experiment: nanopore optical interferometry
# [3] = target: the molecule itself; experiment: nanopore optical interferometry
Molecule,stoichiometry N [1],"average optical path difference at plateau, 0.5 µM GatCAB [2] [nm]","average optical path difference at plateau, 2 µM GatCAB [2] [nm]","average optical path difference at plateau, 5 µM GatCAB [2] [nm]","average optical path difference at plateau, 10 µM GatCAB [2] [nm]","average optical path difference at plateau, 19 µM GatCAB [2] [nm]",binding result [3]
Helicobacter pylori GatCAB (tRNA-dependent amidotransferase) (complex),1,0.6,2.2,5.4,10.4,16.2,–
B1,–,–,–,–,–,–,binds
